To fix the notation:
B1: ATGL (PNPLA2, patatin-like phospholipase domain-containing protein 2), human, full length / CIDEC (FSP27), human (parent)
chain 1: MFPREKTWNISFAGCGFLGVYYVGVASCLREHAPFLVANATHIYGASAGALTATALVTGVCLGEAGAKFIEVSKEARKRFLGPLHPSFNLVKIIRSFLLKVLPADSHEHASGRLGISLTRVSDGENVIISHFNSKDELIQANVCSGFIPVYCGLIPPSLQGVRYVDGGISDNLPLYELKNTITVSPFSGESDICPQDSSTNIHELRVTNTSIQFNLRNLYRLSKALFPPEPLVLREMCKQGYRDGLRFLQRNGLLNRPNPLLALPPARPHGPEDKDQAVESAQAEDYSQLPGEDHILEHLPARLNEALLEACVEPTDLLTTLSNMLPVRLATAMMVPYTLPLESALSFTIRLLEWLPDVPEDIRWMKEQTGSICQYLVMRAKRKLGRHLPSRLPEQVELRRVQSLPSVPLSCAAYREALPGWMRNNLSLGDALAKWEECQRQLLLGLFCTNVAFPPEALRMRAPADPAPAPADPASPQHQLAGPAPLLSTPAPEARPVIGALGL
chain 2: MEYAMKSLSLLYPKSLSRHVSVRTSVVTQQLLSEPSPKAPRARPCRVSTADRSVRKGIMAYSLEDLLLKVRDTLMLADKPFFLVLEEDGTTVETEEYFQALAGDTVFMVLQKGQKWQPPSEQGTRHPLSLSHKPAKKIDVARVTFDLYKLNPQDFIGCLNVKATFYDTYSLSYDLHCCGAKRIMKEAFRWALFSMQATGHVLLGTSCYLQQLLDATEEGQPPKGKASSLIPTCLKILQ
B2: ATGL (PNPLA2, patatin-like phospholipase domain-containing protein 2), human, full length / G0S2 (G0/G1 switch protein 2), human (parent)
chain 1: B1 chain 1
chain 2: METVQELIPLAKEMMAQKRKGKMVKLYVLGSVLALFGVVLGLMETVCSPFTAARRLRDQEAAVAELQAALERQALQKQALQEKGKQQDTVLGGRALSNRQHAS

The values that follow come from paper PMC10958042.

The first test covers variants of B1. As to the kind of experiment: LUMIER: Protein A-ATGL variant and firefly luciferase-partner co-expressed in HEK293T, lysates immunoprecipitated on IgG-coated plates, co-precipitated partner measured as luciferase luminescence. Conditions: with CIDEC (FSP27), transient co-transfection, IgG-coated LUMITRAC plates, 2 h at 4 °C, three PBS washes, Bright-Glo luciferase reagent, triplicates per assay, two …, parent: 0.17, not graded, scale: log2 fold change of co-immunoprecipitated luminescence relative to wild-type ATGL within each experiment.
In the case of chain 1 L178A, the screen value is -0.204.

In the case of chain 1 E368A, the screen value was -0.223.

Consider chain 1 K275A, for which the screen value was -0.673.

chain 1 R95L: the screen value was -0.169.

In the case of chain 1 R95K, the screen value was -0.0915.

As for chain 1 V127L, the screen value is -0.166.

On to chain 1 G16K, for which the screen value was determined as 0.534.

Turning to chain 1 V328A, the screen value was determined as 0.302.

Consider chain 1 G189E, for which the screen value is -0.952.

On to chain 1 Q140A, for which the screen value came to 0.722.

Turning to chain 1 Q140K, the screen value was -0.161.

For chain 1 N180L, the screen value is -0.529.

Consider chain 1 N39E, for which the screen value is 0.129.

chain 1 G153A: the screen value was -0.268.

For chain 1 G153K, the screen value was -0.57.

Turning to chain 1 R329E, the screen value amounted to 0.201.

Turning to chain 1 Q396A, the screen value came out at 0.0352.

In the case of chain 1 Y415A, the screen value is -0.411.

As to chain 1 T41A, the screen value was 0.105.

As for chain 1 G66A, the screen value is -0.0355.

For chain 1 G66L, the screen value amounted to 0.197.

In the case of chain 1 L62K, the screen value was -0.0341.

As for chain 1 L62A, the screen value is -0.111.

Consider chain 1 E314A, for which the screen value was -0.691.

On to chain 1 A104E, for which the screen value was -0.0649.

As to chain 1 H109E, the screen value is -0.00157.

For chain 1 A453E, the screen value turned out to be 0.56.

For the variant chain 1 G59L, the screen value amounted to 0.339.

As for chain 1 R113L, the screen value was -0.719.

Take chain 1 R113K: the screen value was -0.11.

Take chain 1 L159A: the screen value is -0.648.

Take chain 1 R351L: the screen value is -0.353.

chain 1 F35A: the screen value turned out to be 0.00149.

Consider chain 1 F35E, for which the screen value is 0.312.

For the variant chain 1 P156K, the screen value is -0.723.

In the case of chain 1 L102K, the screen value was -0.128.

In the case of chain 1 P86K, the screen value turned out to be 0.081.

As to chain 1 E125L, the screen value is -0.231.

For the variant chain 1 P103K, the screen value is -0.241.

In the case of chain 1 S158E, the screen value was -0.309.

Turning to chain 1 S158A, the screen value was -0.128.

Still in this test, the particulars now being: with CIDEC (FSP27), transient co-transfection, IgG-coated LUMITRAC plates, 2 h at 4 °C, three PBS washes, Bright-Glo luciferase reagent, triplicates per assay, two …, parent: 0.24, not graded, scale: log2 fold change of co-immunoprecipitated luminescence relative to wild-type ATGL within each experiment.
As for chain 1 L178A, the screen value was -0.645.

For the variant chain 1 E368A, the screen value is -0.54.

In the case of chain 1 K275A, the screen value is -0.64.

Take chain 1 R95L: the screen value worked out at 0.507.

Regarding chain 1 R95K, the screen value is -0.656.

Take chain 1 V127L: the screen value was -0.0792.

As for chain 1 G16K, the screen value was determined as 0.954.

Regarding chain 1 V328A, the screen value was -0.193.

For chain 1 G189E, the screen value is -0.896.

Take chain 1 Q140A: the screen value amounted to 0.0209.

As to chain 1 Q140K, the screen value is 0.485.

On to chain 1 N180L, for which the screen value is -0.574.

On to chain 1 N39E, for which the screen value is -0.0276.

As to chain 1 G153A, the screen value was found to be 0.00164.

On to chain 1 G153K, for which the screen value is -0.174.

chain 1 R329E: the screen value was -0.13.

In the case of chain 1 Q396A, the screen value is -0.182.

As to chain 1 Y415A, the screen value is -0.266.

chain 1 T41A: the screen value is -0.176.

As to chain 1 G66A, the screen value is -0.0837.

chain 1 G66L: the screen value is -0.656.

With chain 1 L62K, the screen value is 0.845.

chain 1 L62A: the screen value was -0.17.

chain 1 E314A: the screen value was -0.29.

In the case of chain 1 A104E, the screen value was -0.317.

For the variant chain 1 H109E, the screen value was -0.00996.

As to chain 1 A453E, the screen value came out at 0.847.

chain 1 G59L: the screen value was -0.00561.

Regarding chain 1 R113L, the screen value was determined as 0.537.

On to chain 1 R113K, for which the screen value came to 0.829.

In the case of chain 1 L159A, the screen value is 0.00161.

Regarding chain 1 R351L, the screen value was -0.407.

For chain 1 F35A, the screen value is -0.0902.

Turning to chain 1 F35E, the screen value came out at 0.00116.

Turning to chain 1 P156K, the screen value is -0.374.

chain 1 L102K: the screen value is -0.319.

For chain 1 P86K, the screen value was -0.642.

Consider chain 1 E125L, for which the screen value is -0.238.

As to chain 1 P103K, the screen value is -0.421.

On to chain 1 S158E, for which the screen value is -0.238.

As to chain 1 S158A, the screen value was 0.0569.

In the next test the parent is B2. The description is as above. Conditions: with G0S2 (G0/G1 switch protein 2), transient co-transfection, IgG-coated LUMITRAC plates, 2 h at 4 °C, three PBS washes, Bright-Glo luciferase reagent, triplicates per assay, two …, parent: 0.26, not graded, scale: log2 fold change of co-immunoprecipitated luminescence relative to wild-type ATGL within each experiment.
For the variant chain 1 A104E, the screen value was -0.113.

On to chain 1 I70K, for which the screen value was -1.77.

As to chain 1 I70A, the screen value is -1.03.

Consider chain 1 N180L, for which the screen value was -1.96.

For chain 1 K92L, the screen value was 0.251.

Consider chain 1 A434L, for which the screen value was found to be 0.461.

Take chain 1 L261E: the screen value is -0.622.

chain 1 F35A: the screen value is -0.163.

Consider chain 1 F35E, for which the screen value was -0.0735.

In the case of chain 1 L159A, the screen value is -0.413.

As to chain 1 L102K, the screen value is -2.65.

Consider chain 1 A453E, for which the screen value is 0.72.

Turning to chain 1 F348E, the screen value was -0.115.

As for chain 1 P103K, the screen value was -0.0704.

For the variant chain 1 L178A, the screen value is -0.634.

With chain 1 G66A, the screen value worked out at 0.751.

In the case of chain 1 G66L, the screen value is -0.176.

Staying with this test, now noted: with G0S2 (G0/G1 switch protein 2), transient co-transfection, IgG-coated LUMITRAC plates, 2 h at 4 °C, three PBS washes, Bright-Glo luciferase reagent, triplicates per assay, two …, parent: 0.56, not graded, scale: log2 fold change of co-immunoprecipitated luminescence relative to wild-type ATGL within each experiment.
Regarding chain 1 A104E, the screen value was 0.0584.

Consider chain 1 I70K, for which the screen value is -2.22.

Turning to chain 1 I70A, the screen value was -1.14.

Turning to chain 1 N180L, the screen value is -1.94.

In the case of chain 1 K92L, the screen value was -0.642.

On to chain 1 A434L, for which the screen value was -0.0543.

In the case of chain 1 L261E, the screen value is -0.673.

For chain 1 F35A, the screen value is -0.133.

As to chain 1 F35E, the screen value turned out to be 0.169.

Regarding chain 1 L159A, the screen value is -0.671.

For chain 1 L102K, the screen value is -2.45.

Consider chain 1 A453E, for which the screen value was -0.082.

In the case of chain 1 F348E, the screen value is -0.287.

Turning to chain 1 P103K, the screen value was found to be 6.88e-05.

Turning to chain 1 L178A, the screen value worked out at 0.0997.

Consider chain 1 G66A, for which the screen value is 0.00762.

Regarding chain 1 G66L, the screen value is -0.16.
